# Source: US20150266954A1
# Tests used:
# [1] = target: cynomolgus monkey IL-21 (cynomolgus monkey); test: cell-based or functional assay
# human IL-21 (human) [2] = target: human IL-21 (human) (UniProt Q9HBE4); test: cell-based or functional assay
# mouse IL-21 (mouse) = mouse IL-21 (mouse) (UniProt Q9ES17); test: cell-based or functional assay
# rabbit IL-21 (rabbit) = test: cell-based or functional assay
# human IL-21 (human) [3] = target: human IL-21 (human) (UniProt Q9HBE4); test: capture ELISA, biotin-IL-21 at 11 nM
# human IL-21 (human) [4] = target: human IL-21 (human) (UniProt Q9HBE4); test: capture ELISA, biotin-IL-21 at 33 nM
# human IL-21 (human) [5] = target: human IL-21 (human) (UniProt Q9HBE4); test: capture ELISA, biotin-IL-21 at 1.2 nM
# human IL-21 (human) [6] = target: human IL-21 (human) (UniProt Q9HBE4); test: capture ELISA, biotin-IL-21 at 3.7 nM
# human IL-21 (human) [7] = target: human IL-21 (human) (UniProt Q9HBE4); test: capture ELISA, biotin-IL-21 at 0.05 nM
# human IL-21 (human) [8] = target: human IL-21 (human) (UniProt Q9HBE4); test: capture ELISA, biotin-IL-21 at 0.14 nM
# human IL-21 (human) [9] = target: human IL-21 (human) (UniProt Q9HBE4); test: capture ELISA, biotin-IL-21 at 0.41 nM
# human IL-21 (human), sequence (Q9HBE4 32-162): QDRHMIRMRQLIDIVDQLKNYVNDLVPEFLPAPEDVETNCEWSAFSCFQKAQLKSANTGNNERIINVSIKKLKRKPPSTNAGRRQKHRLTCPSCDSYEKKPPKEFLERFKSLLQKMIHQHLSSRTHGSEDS
# rabbit IL-21 (rabbit), sequence (chain, as listed by the source limits assumed): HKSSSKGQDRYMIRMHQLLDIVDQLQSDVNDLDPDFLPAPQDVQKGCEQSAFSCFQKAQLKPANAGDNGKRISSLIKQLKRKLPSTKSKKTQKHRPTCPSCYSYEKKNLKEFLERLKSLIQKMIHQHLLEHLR
# cynomolgus monkey IL-21 (cynomolgus monkey), sequence (Q9HBE4 other isoform, or with tags, fused parts or gaps): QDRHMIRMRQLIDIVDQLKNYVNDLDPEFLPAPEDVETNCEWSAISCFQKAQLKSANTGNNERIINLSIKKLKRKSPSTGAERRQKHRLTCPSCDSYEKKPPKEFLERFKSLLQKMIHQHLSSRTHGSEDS
substance,measurement,setting,value
"human IL-21R:Fc chimera (R&D Systems, cat #991-R2) (from UniProt Q9HBE5 20-232) (Fc fusion)","IC50, IM9 pan-STAT-luciferase reporter assay, IL-21 at 66.67 pM",[1],3920 pM
same,% of maximum IL-21-induced B cell proliferation at 0.1 nM inhibitor (SDEV 15.8),human IL-21 (human) [2],83%
same,% of maximum IL-21-induced B cell proliferation at 0.21 nM inhibitor (SDEV 10.8),human IL-21 (human) [2],99%
same,% of maximum IL-21-induced B cell proliferation at 0.42 nM inhibitor (SDEV 6.43),human IL-21 (human) [2],87%
same,% of maximum IL-21-induced B cell proliferation at 0.83 nM inhibitor (SDEV 6.33),human IL-21 (human) [2],109%
same,% of maximum IL-21-induced B cell proliferation at 1.67 nM inhibitor (SDEV 12.6),human IL-21 (human) [2],90%
same,% of maximum IL-21-induced B cell proliferation at 3.33 nM inhibitor (SDEV 13.7),human IL-21 (human) [2],103%
same,% of maximum IL-21-induced B cell proliferation at 13.3 nM inhibitor (SDEV 13.8),human IL-21 (human) [2],77%
same,% of maximum IL-21-induced B cell proliferation at 53.3 nM inhibitor (SDEV 6.2),human IL-21 (human) [2],83%
same,"IC50, IM9 pan-STAT-luciferase reporter assay, IL-21 at 66.67 pM",human IL-21 (human) [2],271 pM
same,"IC50, IM9 pan-STAT-luciferase reporter assay, IL-21 at 66.67 pM",mouse IL-21 (mouse),3530 pM
same,"IC50, IM9 pan-STAT-luciferase reporter assay, IL-21 at 66.67 pM",rabbit IL-21 (rabbit),321 pM
human IgG4 isotype control antibody,% of maximum IL-21-induced B cell proliferation at 0.1 nM inhibitor (SDEV 5.34),human IL-21 (human) [2],96%
same,% of maximum IL-21-induced B cell proliferation at 0.21 nM inhibitor (SDEV 10.3),human IL-21 (human) [2],115%
same,% of maximum IL-21-induced B cell proliferation at 0.42 nM inhibitor (SDEV 17.1),human IL-21 (human) [2],107%
same,% of maximum IL-21-induced B cell proliferation at 0.83 nM inhibitor (SDEV 15.3),human IL-21 (human) [2],114%
same,% of maximum IL-21-induced B cell proliferation at 1.67 nM inhibitor (SDEV 4.78),human IL-21 (human) [2],108%
same,% of maximum IL-21-induced B cell proliferation at 3.33 nM inhibitor (SDEV 18.7),human IL-21 (human) [2],119%
same,% of maximum IL-21-induced B cell proliferation at 6.67 nM inhibitor (SDEV 17.9),human IL-21 (human) [2],103%
same,% of maximum IL-21-induced B cell proliferation at 13.3 nM inhibitor (SDEV 6.21),human IL-21 (human) [2],101%
same,% of maximum IL-21-induced B cell proliferation at 26.7 nM inhibitor (SDEV 11.2),human IL-21 (human) [2],96%
same,"fold increase of plasma cells (CD38 high, IgD low), donor 1, 26.7 nM antibody (IL-21 without antibody: 176)",human IL-21 (human) [2],174 fold
same,"fold increase of plasma cells (CD38 high, IgD low), donor 2, 26.7 nM antibody (IL-21 without antibody: 114)",human IL-21 (human) [2],108 fold
same,"fold increase of plasma cells (CD38 high, IgD low), donor 3, 26.7 nM antibody (IL-21 without antibody: 47)",human IL-21 (human) [2],47 fold
same,"fold increase of plasma cells (CD38 high, IgD low), donor 4, 26.7 nM antibody (IL-21 without antibody: 68)",human IL-21 (human) [2],66 fold
same,"fold increase of plasma cells (CD38 high, IgD low), donor 5, 26.7 nM antibody (IL-21 without antibody: 22)",human IL-21 (human) [2],23 fold
same,OD at 560 nm,human IL-21 (human) [3],0.06 OD
same,OD at 560 nm,human IL-21 (human) [4],0.06 OD
same,OD at 560 nm,human IL-21 (human) [5],0.06 OD
same,OD at 560 nm,human IL-21 (human) [6],0.06 OD
same,OD at 560 nm,human IL-21 (human) [7],0.06 OD
same,OD at 560 nm,human IL-21 (human) [8],0.06 OD
same,OD at 560 nm,human IL-21 (human) [9],0.06 OD
